Results from patent US20110300113A1, “Death Receptor CD95 Controls Neurogenesis of Adult Neural Stem Cells in Vivo and in Vitro” (DEUTSCHES KREBSFORSCHUNGSZENTRUM, priority 2006, published 2011).

Tests used:
SVZ NSCs = assay: β-III-tubulin expression in adult SVZ neural progenitor cells (flow cytometry); assay type: cell-based, mouse; conditions: SVZ progenitors, in the presence of growth factors
Description: Lentiviral infections. SVZ NSCs were infected with the lentiviral vector pEIGW and pEIGW-GSK3βS9A at a multiplicity of infection (MOI) of 5. The plasmids were constructed by replacing the eGFP sequence between the EF1α promotor and the WPRE element in pWPTS-eGFP with the IRES-eGFP cassette form pIRES2-eGFP (Clontech, Germany). The recombinant lentiviral vector pEIGW-GSK3βS9A was constructed using pcDNA3 HA-GSK3βS9A. This vector encodes a constitutively active GSK3β mutant containing a serine-to-alanine substitution at residue 9 (GSK3βS9A). Expression of all transgenes was confirmed in infected cells by FACS analysis of GFP expression. The percentage of infected cells was 70-90%.
siRNA. […] 48 h later pp60 src knockdown was assessed by Western Blot. At the same time, cells were stimulated with CD95L-T4 and analysed after 48 h for β-III-tubulin positive cells.
For staining of intracellular markers, cells were harvested, fixed with 4% PFA for 10 min on ice, washed and permeabilized using 0.1% Saponin (Sigma-Aldrich) in PBS with 10% FCS (SAP). […] Cells were washed again three times with SAP and analysed. […] To quantify DNA fragmentation, cells detached with trypsin were centrifuged, washed and fixed with 70% ethanol at −20° C. for 1 h. […] After final washings, all samples were analysed using a FACS-Calibur (Becton Dickinson) and CellQuest Software (Becton Dickinson). […]

hippocampal NSCs = assay: β-III-tubulin expression in hippocampal neural progenitor cells; assay type: cell-based, mouse; conditions: neural progenitors isolated from the HC
Protocol: (§1) For staining of intracellular markers, cells were harvested, fixed with 4% PFA for 10 min on ice, washed and permeabilized using 0.1% Saponin (Sigma-Aldrich) in PBS with 10% FCS (SAP). Cells were incubated with primary antibody or isotype for 30 min on ice. Cells were washed three time with SAP and incubated with secondary antibody for 30 min on ice. Cells were washed again three times with SAP and analysed. Antibodies used were: anti β-III-tubulin (Chemicon) 1:100, anti GFAP (Chemicon) 1:100 and isotype mouse IgG1 (Sigma) 1:20. Secondary antibody was goat anti-mouse PE 1:100 (Dianova). To quantify DNA fragmentation, cells detached with trypsin were centrifuged, washed and fixed with 70% ethanol at −20° C. for 1 h. Fixed cells were resuspended in a hypotonic lysis buffer (0.1% sodium citrate and 0.1% Triton X-100) containing […] of propidium iodide, incubated at 4° C. overnight. After final washings, all samples were analysed using a FACS-Calibur (Becton Dickinson) and CellQuest Software (Becton Dickinson).
(§2) Mouse adult neural stem cell culture. NSCs were isolated as previously described^30. Briefly, 6 week old female C57BL6 mice were sacrificied and tissue from hippocampus, SVZ and spinal cord was dissected out. […]

neural progenitor cells [1] = assay: GFAP expression (glial differentiation) in neural progenitor cells; assay type: cell-based, mouse; conditions: data not shown
Protocol: as §1, §2

neural progenitor cells [2] = assay: Proliferation rate of neural progenitor cells; assay type: cell-based, mouse; conditions: compared to untreated cells; data not shown
Protocol: Mouse adult neural stem cell culture. NSCs were isolated as previously described^30. Briefly, 6 week old female C57BL6 mice were sacrificied and tissue from hippocampus, SVZ and spinal cord was dissected out. The tissue was digested, washed and cultured in Neurobasal Medium (Invitrogen Karlsruhe, Germany) supplemented with B27 (Invitrogen), Penicillin-Streptomycin (Invitrogen), Glutamax (Invitrogen), Heparin (2 μg/ml) (Sigma) and the growth factors EGF (20 ng/ml) (Promocell) and bFGF (20 ng/ml) (Promocell). After 7 days in culture neurospheres were harvested by centrifugation, dissociated using trypsin (Invitrogen) and replated. Cells were passaged once to twice weekly. Cells used for experiments were passaged between 10 to 15 times. Cells were stimulated with 10 μM Retinoic Acid or 1 activation unit of CD95L-T4. One activation unit was defined as the amount of CD95L-T4 required to increase phosphorylation of GSK3β. Activation units were defined freshly for each batch of CD95L-T4 and varied from 5-40 ng/ml.

CD95 = target: T1, CD95 (Mus musculus, UniProt P25446); assay: Immunoprecipitation of CD95 / phosphotyrosine from stimulated NSCs; assay type: cell-based; conditions: NSCs or developing neurons
T1 construct: pp60 and p85 association to CD95 increased at 1 minutes and 5 minutes after stimulation of NSCs with 1 U CD95L-T4; endogenous in cells; host or cells: mouse adult neural stem cells (C57BL6)
T1 sequence (P25446 22-327): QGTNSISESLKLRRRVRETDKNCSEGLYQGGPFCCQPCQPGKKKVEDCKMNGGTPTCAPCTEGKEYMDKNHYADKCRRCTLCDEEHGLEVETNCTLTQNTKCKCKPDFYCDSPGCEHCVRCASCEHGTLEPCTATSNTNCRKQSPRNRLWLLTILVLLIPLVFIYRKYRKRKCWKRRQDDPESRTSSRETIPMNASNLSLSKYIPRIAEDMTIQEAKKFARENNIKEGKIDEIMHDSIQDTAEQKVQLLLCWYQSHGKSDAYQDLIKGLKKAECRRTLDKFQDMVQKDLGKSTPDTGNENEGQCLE
Protocol: Immunoprecipitation. 2×10^7 cells were either treated with 1 activation unit (5-40 ng/ml depending on the batch of CD95L-T4) or 5000 ng/ml CD95L-T4 for 1 and 5 minutes (unless otherwise indicated) at 37° C. or left untreated, washed twice in PBS plus phosphatase inhibitors (NaF, NaN3, pNPP, NaPPi, β-Glycerolphosphate, 10 mM each and 2 mM orthovanadate), and subsequently lysed in buffer A (20 mM Tris/HCl, pH 7.5, 150 mM NaCl, 2 mM EDTA, 1 mM phenylmethylsulfonyl fluoride, protease inhibitor cocktail (Roche), 1% Triton X-100 (Serva, Heidelberg, Germany), 10% glycerol, and phosphatase inhibitors (NaF, NaN3, pNPP, NaPPi, 1′-Glycerolphosphate, 10 mM each and 2 mM orthovanadate) (stimulated condition) or lysed without treatment (unstimulated condition). Protein concentration was determined using BCA kit (Pierce). 1 mg of protein was immunoprecipitated overnight with either 5 μg anti-CD95 AB Jo2 or 5 μg anti-phospho tyrosine antibody (pTyr 4G10 (Upstate)) and 30 μl protein-A Sepharose. Beads were washed 5 times with 20 volumes of lysis buffer. The immunoprecipitates were mixed with 60 μl of Laemmli buffer and 30 μl were analyzed on either 15% or 7.5% SDS-PAGE. […]

B1: CD95L: the ligand for CD95 (APO-1/Fas) (protein, listed as Homo sapiens)
chain: MQQPFNYPYPQIYWVDSSASSPWAPPGTVLPCPTSVPRRPGQRRPPPPPPPPPLPPPPPPPPLPPLPLPPLKKRGNHSTGLCLLVMFFMVLVALVGLGLGMFQLFHLQKELAELRESTSQMHTASSLEKQIGHPSPPPEKKELRKVAHLTGKSNSRSMPLEWEDTYGIVLLSGVKYKKGGLVINETGLYFVYSKVYFRGQSCNNLPLSHKVYMRNSKYPQDLVMMEGKMMSYCTTGQMWARSSYLGAVFNLTSADHLYVNVSELSLVNFEESQTFFGLYKL
modifications: CHAIN (1)..(281) This feature is the amino acid sequence for CD95L protein. CD95L is a ligand for CD95. CD95 is APO-1/Fas and a member of the tumor necrosis factor receptor superfamily.
With B1 the β-III-tubulin expression (SVZ NSCs) was “greatly increased β-III-tubulin expression”, the β-III-tubulin expression (hippocampal NSCs) was “increase in β-III-tubulin expression” and the GFAP expression (neural progenitor cells [1]) was “did not change GFAP expression”. For the same molecule, the proliferation rate (neural progenitor cells [2]) was “did not lead to significant changes in the proliferation rate” and the “FADD recruitment to CD95” value (CD95) was “did not induce efficient recruitment of the adaptor molecule FADD”.
